Some results are limits rather than exact numbers.

For test [1], the target named is dipeptidyl peptidase IV (DPP4), the MERS-CoV receptor, His-tagged (human) (UniProt P27487).
The target is the same in test [2]. The test is described as follows: ELISA, spike coated, His-tagged hDPP4 titrated. A general note: An ELISA detects its analyte on a solid surface through an enzyme-linked reagent.

Sequence of dipeptidyl peptidase IV (DPP4), the MERS-CoV receptor, His-tagged (human) (P27487 29-766 limits assumed): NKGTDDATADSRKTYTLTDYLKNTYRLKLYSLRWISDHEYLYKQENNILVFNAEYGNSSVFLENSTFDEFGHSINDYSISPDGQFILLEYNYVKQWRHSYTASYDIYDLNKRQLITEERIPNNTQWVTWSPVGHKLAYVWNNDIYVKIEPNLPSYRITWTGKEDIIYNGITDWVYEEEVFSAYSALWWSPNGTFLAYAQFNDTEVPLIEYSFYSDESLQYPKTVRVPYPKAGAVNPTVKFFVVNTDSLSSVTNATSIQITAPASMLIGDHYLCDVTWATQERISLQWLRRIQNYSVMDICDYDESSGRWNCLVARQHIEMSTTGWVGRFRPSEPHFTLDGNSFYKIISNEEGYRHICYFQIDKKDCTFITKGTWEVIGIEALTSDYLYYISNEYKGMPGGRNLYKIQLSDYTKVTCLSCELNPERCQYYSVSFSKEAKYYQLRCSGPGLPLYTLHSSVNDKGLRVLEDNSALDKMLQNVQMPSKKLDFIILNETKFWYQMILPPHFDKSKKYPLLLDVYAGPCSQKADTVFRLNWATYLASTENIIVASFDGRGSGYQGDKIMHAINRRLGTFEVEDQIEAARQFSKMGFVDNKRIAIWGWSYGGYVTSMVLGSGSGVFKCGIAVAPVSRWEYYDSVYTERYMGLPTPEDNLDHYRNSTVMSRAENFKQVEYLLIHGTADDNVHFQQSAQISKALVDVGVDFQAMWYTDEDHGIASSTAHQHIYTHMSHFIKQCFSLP

The term IC50 denotes the concentration that inhibits the measured activity by half. Lower therefore signals higher potency. The EC50 is the midpoint of the concentration-response curve. Substance “BV2373 CoV S polypeptide (SEQ ID NO: 87) (from UniProt P0DTC2 14-1273) (other; other documents disagree on this pair)” yielded an IC50 in test [1] of over 5 µg/mL. The EC50 in test [2] is over 5 µg/mL.

The values above are taken from patent publication US20250025549A1.
